For one assay, the system named is hCXCR2 knock-in mice. Briefly: House dust mite (HDM) severe asthma model in hCXCR2 knock-in mice. The format is in vivo, mouse. The note with it: 10 mg/kg intraperitoneal days 5 and 12, versus vehicle. From the text:
hCXCR2 knock-in mice were generated by use of homologous recombination in embryonic stem (ES) cells to insert the human CXCR2 into exon 1 of the mouse CXCR2 gene. The single coding exon of human CXCR2 was inserted into a vector with 5′ and 3′ arms homologous to the genomic location of the mouse coding exon of CXCR2, giving rise to a gene structure that coded for human CXCR2 but retained the mouse non-coding and regulatory elements. This vector was electroporated into C57B1/6 mouse ES cells which were incorporated into C57B1/6 mouse blastocysts and transplanted into pseudopregnant female mice. Pups were backcrossed to the parental C57B1/6 strain and offspring screened by southern blot for germline transmission of the human CXCR2 gene. Mice heterozygous for human CXCR2 were intercrossed to give a homozygous human CXCR2 line and phenotype was confirmed by analysis of binding of anti-mouse and anti-human CXCR2 antibodies by flow cytometry.
The anti-CXCR2 antibody BKO-4A8-mIgG1 (SEQ ID NOs: 113 and 114) was generated by formatting the variable heavy and light chains of BKO-4A8 onto an effector function-reduced mouse IgG1 constant region. Female hCXCR2 knock-in mice were subjected to sensitization with 50 μg HDM in complete Freund's adjuvant (CFA) administered by subcutaneous injection on day 0 and intranasal challenge with […] without CFA on day 14. Animals were treated with vehicle or BKO-4A8-mIgG1 (10 mg/kg) via intraperitoneal injection on days 5 and 12. Inflammatory responses were characterized at endpoint on day 16 by total and differential cell counts in bronchoalveolar lavage (BAL) fluid of the right lung. The left lung was fixed in 10% formalin for histopathology and mucus production assessment.
Statistical evaluation was performed using a Mann-Whitney nonparametric unpaired t test with outliers identified using Grubbs' test (Alpha=0.01) to discern statistically significant differences between the vehicle and treatment groups. All statistical analyses were performed using GraphPad Prism™ 7.01.

The subject of assay [1] is native cynomolgus CXCR2 expressed by cynomolgus neutrophils. Briefly: Flow cytometry binding to cynomolgus blood neutrophils. Also noted: species or system cynomolgus monkey. The note with it: FIG. 2, MFI. The protocol:
(§1) Whole human buffy coat, PBMC enriched fractions prepared from human peripheral blood buffy coat or cynomolgus monkey whole blood was used for analysis of antibody binding activity by flow cytometry. Briefly, blood was untreated or diluted 1:1 in sterile filtered room temperature phosphate-buffered saline (PBS). 30 mL samples were layered over 15 mL Lymphoprep™ (Stem Cell Technologies, cat #07851). Peripheral blood mononuclear cells (PBMC) were enriched by room temperature centrifugation at 700 g for 30 minutes with no braking. The PBMC layer was isolated and cells washed in PBS containing 2 mM EDTA with low speed centrifugation at 200 g, to remove platelet contamination. Whole blood or PBMC enriched cell fractions were resuspended in red blood cell lysing solution (BioLegend, 420301). Viable cell counts were determined and cells resuspended at 1×10^7 cells per mL in FACS buffer (1×PBS+0.5% (w/v) BSA+2 mM EDTA pH 7.2).
Flow cytometry binding assays using whole blood or PBMC enriched preparations: Binding assays to detect CXCR2 on blood neutrophil populations using test antibodies were performed essentially as described for assays using transiently transfected Expi293F™ cells. Binding of antibodies to human CXCR2 on the surface of the neutrophils was measured using anti-CXCR2 antibody directly conjugated to the fluorophore allophycocyanin (APC). Matched isotype control antibodies were included for comparison. Cells were incubated with lineage specific antibodies and 2 μg/ml of APC conjugated anti-CXCR2 antibody or isotype control prepared in ice cold 3% BSA/PBS for a minimum of 30 minutes at 4° C. The commercial anti-CXCR2 antibody (clone 48331 (R&D Systems FAB331A)) was used as a positive control. […] The level of fluorescence on the cell surface was measured by flow cytometry. Using this method, test anti-CXCR2 antibodies were detected binding neutrophils from both human and cynomolgus monkey.
A general note: Flow cytometry measures light scatter and fluorescence of single cells or particles in a stream.

For assay [2], the target named is T1, native human CXCR2 expressed by human neutrophils (Homo sapiens, UniProt P25025).
T1 construct: native human CXCR2 expressed by human neutrophils; endogenous in cells; host or cells: human peripheral blood cells (buffy coat, PBMC-enriched fractions, anticoagulated blood): neutrophils, monocytes
T1 sequence (P25025 1-360): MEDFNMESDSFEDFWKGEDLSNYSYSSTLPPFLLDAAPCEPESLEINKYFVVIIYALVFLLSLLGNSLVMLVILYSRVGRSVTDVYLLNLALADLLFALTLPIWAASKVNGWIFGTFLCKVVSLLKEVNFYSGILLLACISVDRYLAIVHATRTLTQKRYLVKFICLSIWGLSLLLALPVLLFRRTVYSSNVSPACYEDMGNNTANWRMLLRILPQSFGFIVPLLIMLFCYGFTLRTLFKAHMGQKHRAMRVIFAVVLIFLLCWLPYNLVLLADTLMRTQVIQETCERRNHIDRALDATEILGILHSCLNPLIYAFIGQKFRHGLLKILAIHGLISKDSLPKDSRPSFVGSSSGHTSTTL
Briefly: Flow cytometry binding to human blood cells (neutrophils, monocytes, PBMC preparations). The note with it: FIG. 2, MFI. The protocol:
as §1
Flow cytometry binding assays using whole blood or PBMC enriched preparations: Binding assays to detect CXCR2 on blood neutrophil populations using test antibodies were performed essentially as described for assays using transiently transfected Expi293F™ cells. Binding of antibodies to human CXCR2 on the surface of the neutrophils was measured using anti-CXCR2 antibody directly conjugated to the fluorophore allophycocyanin (APC). Matched isotype control antibodies were included for comparison. Cells were incubated with lineage specific antibodies and 2 μg/ml of APC conjugated anti-CXCR2 antibody or isotype control prepared in ice cold 3% BSA/PBS for a minimum of 30 minutes at 4° C. The commercial anti-CXCR2 antibody (clone 48331 (R&D Systems FAB331A)) was used as a positive control. Neutrophil populations were identified by characteristic granularity and size, and positive binding of commercially available antibodies against CD10 (Biolegend, clone H110a, catalogue number 312204). Cells were washed and fixed (BioLegend Fixation buffer, 420801) prior to analysis. The level of fluorescence on the cell surface was measured by flow cytometry. Using this method, test anti-CXCR2 antibodies were detected binding neutrophils from both human and cynomolgus monkey.
To further characterize the anti-CXCR2 antibody BKO-4A8-101c, the ability to bind CXCR2 on neutrophils was tested on anticoagulated human blood. Binding was measured using BKO-4A8-101c directly conjugated to fluorophore APC. Matched isotype control antibodies conjugated to APC were included for comparison. Cells were incubated with lineage-specific antibodies and 2 μg/mL of APC conjugated anti-CXCR2 antibody or isotype control. The level of fluorescence on the cell surface was measured by flow cytometry. […]

Another assay addresses T2, Human CXCR2 (Homo sapiens, UniProt P25025).
T2 sequence (P25025 1-360): T1 sequence (P25025 1-360)
Briefly: Flow cytometry binding assay, Expi293F cells transiently transfected with human CXCR2. Also noted: host or cells: Expi293F cells, vector pTT5. The note with it: for Fold change in binding relative to BKO-4A8: point variant chain co-expressed with parental other chain. The protocol: For each 10 mL transfection, lipid-DNA complexes were prepared by diluting 10 μg of plasmid DNA in Opti-MEM™ I Reduced Serum Medium (Cat. no. 31985-062) to a total volume of 1.0 mL. 54 μL of ExpiFectamine™ 293 Reagent was diluted in Opti-MEM™ I medium to a total volume of 1.0 mL. Transfections were carried out according to manufacturer's instructions. The cells were incubated in a 37° C. incubator with a humidified atmosphere of 8% CO2 in air on an orbital shaker rotating at 200 rpm. Approximately 18-24 hours post-transfection, the cell viability was evaluated and transfected cells harvested for use.
Harvested cells were resuspended in FACS buffer (1×PBS+0.5% (w/v) bovine serum albumin (BSA)+2 mM EDTA pH 7.2). Approximately 2×10^5 cells were added per well in a 96-well round-bottomed plate. Cells were pelleted by centrifugation at 400 g for 5 mins at 4° C. and supernatants discarded. 25 μL of each test antibody or control antibody was added to the cells and incubated for 30 minutes at 4° C. Cells were washed twice in 100 μL FACS buffer followed by centrifugation at 400 g for 5 mins at 4° C.
For detection, 50 μL of secondary antibody (Table 2) was added to relevant samples. Commercially available antibodies that bound to transfected CXCR family members were used as positive controls to ensure that the cells were expressing the receptors. Cells were washed twice in 200 μL of FACS buffer followed by centrifugation at 400 g for 5 mins at 4° C. Before sample acquisition, cells were resuspended in 100 μL of FACS buffer. Samples were acquired using the high throughput sampler on a FACSCanto™ II cytometer (Beckton-Dickinson).
Binding of BKO-4A8 and variants thereof was detected by incubation of fluorochrome-conjugate anti-human IgG light chain lambda antibody. The binding activity of antibodies tested, quantified as mean fluorescent intensity, was independent of the antibody Fc region as illustrated in FIG. 9.

Positions count from the first letter of the chain named. In names and notes the source's numbering stands. Bounds are passed on as bounds.

Chain of native cynomolgus CXCR2 expressed by cynomolgus neutrophils (as listed by the source): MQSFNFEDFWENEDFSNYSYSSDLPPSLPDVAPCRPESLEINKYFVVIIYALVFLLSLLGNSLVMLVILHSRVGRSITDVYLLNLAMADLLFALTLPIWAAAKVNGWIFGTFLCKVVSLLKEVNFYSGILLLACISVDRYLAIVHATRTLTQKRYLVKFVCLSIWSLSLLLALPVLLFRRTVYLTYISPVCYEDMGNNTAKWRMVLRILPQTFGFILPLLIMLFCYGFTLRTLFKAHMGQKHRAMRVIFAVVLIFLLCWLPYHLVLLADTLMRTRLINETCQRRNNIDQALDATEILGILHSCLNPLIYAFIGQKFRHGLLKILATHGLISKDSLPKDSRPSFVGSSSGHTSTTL

B1: BKO-4A8-mIgG1: BKO-4A8 variable chains on an effector function-reduced mouse IgG1 constant region (SEQ ID NOs: 113 and 114) (antibody)
heavy: EVQLLESGGGLVQPGGSLRLSCAASGFTFSSSTMSWVRQAPGKGLEWVSAISGRGRNTYYADSVKGRFTISRDNSRNTLYLQMNSLRAEDTAVYYCAIQMGYWGQGILVTVSSAKTTPPSVYPLAPGSAAQTNSMVTLGCLVKGYFPEPVTVTWNSGSLSSGVHTFPAVLQSDLYTLSSSVTVPSSPRPSETVTCNVAHPASSTKVDKKIVPRDCGCKPCICTVPEVSSVFIFPPKPKDVLTITLTPKVTCVVVAISKDDPEVQFSWFVDDVEVHTAQTQPREEQFNSTFRSVSELPIMHQDWLNGKEFKCRVNSAAFPAPIEKTISKTKGRPKAPQVYTIPPPKEQMAKDKVSLTCMITDFFPEDITVEWQWNGQPAENYKNTQPIMNTNGSYFVYSKLNVQKSNWEAGNTFTCSVLHEGLHNHHTEKSLSHSPG
light: QSALTQPPSASGSPGQSVTISCIGTSSDVGGYNYVSWYQQHPDKAPKLMIYEVNKRPSGVPDRFSGSKSGNTASLTVSGLQAEDEADYYCSSYAGNNNFGVFGGGTKLTVLGQPKSSPSVTLFPPSSEELETNKATLVCTITDFYPGVVTVDWKVDGTPVTQGMETTQPSKQSNNKYMASSYLTLTARAWERHSSYSCQVTHEGHTVEKSLSRADCS
modifications: effector function-reduced mouse IgG1 constant region; BKO-4A8-mIgG1 VH; BKO-4A8-mIgG1 VL
For B1, the goblet cell hyperplasia entry in the assay with hCXCR2 knock-in mice (p=0.0052) was “reduced goblet cell hyperplasia”. Moreover, the “reduction in BAL eosinophil counts” value in the assay with hCXCR2 knock-in mice (p=0.017) is on record as greater than 60%. For the same molecule, the “reduction in BAL neutrophil counts” value with hCXCR2 knock-in mice (p=0.028) is greater than 60%.

B2: BKO-8G3_b: recombinant, VH SEQ ID NO: 41, VL SEQ ID NO: 42 (antibody, V domains shown)
VH: EVQLLESGGGLVQPGGSLRLSCAASGFTFSSYAMSWVRQAPGKGLEWVSAITGSGGSTYYADSVKGRFTISRDKSKNTLYLQMNSLRAEDTAVYYCAIRLGYWGQGSLVTVSS
VL: QSALTQPPSASGSPGQSVTISCTGTSSDVGGYNYVSWYQQHPGKVPKLVIYEVSKRPSGVPDRFSGSKSGNTASLTVSGLQAEDEADYYCSSYAGSNNFGVFGGGTKLTVL
modifications: BKO_8G3_H4_D04_VH; BKO_8G3_L1_G01_VL
Take B2: the “binding to native cynomolgus CXCR2 on cynomolgus PBMCs / neutrophils” value in assay [1] was “high binding activity”. In addition, in assay [2], the “binding to native human CXCR2 on human PBMCs / neutrophils” value is listed as “high binding activity”.

B3: V97K: BKO-4A8 point variant, VL SEQ ID NO: 97 (antibody, V domains shown)
VL: B2 VL with T23I, G43D, V45A, V49M, S54N, S96N, V101K
modifications: VH not cited; 4A8 VL V97K
Regarding B3, the “Fold change in binding relative to BKO-4A8” value with Human CXCR2 was determined as 1.0.

B4: Y91A: BKO-4A8 point variant, VL SEQ ID NO: 83 (antibody, V domains shown)
VL: B2 VL with T23I, G43D, V45A, V49M, S54N, Y93A, S96N
modifications: VH not cited; 4A8 VL Y91A
Turning to B4, in the assay with Human CXCR2, the “Fold change in binding relative to BKO-4A8” value is 1.7.

B5: BKO-9C3_a: recombinant, VH SEQ ID NO: 49, VL SEQ ID NO: 50 (antibody, V domains shown)
VH: B2 VH with L4V, S30R, T52S, R99Q, S107T
VL: B2 VL with T19I, V49M, S91T
modifications: BKO_9C3_H8_G08_VH; BKO_9C3_L1_F01_VL
Consider B5, for which the “binding to native cynomolgus CXCR2 on cynomolgus PBMCs / neutrophils” value in assay [1] is listed as “above average levels of binding”. The “binding to native human CXCR2 on human PBMCs / neutrophils” value in assay [2] was “substantial levels of binding”.

B6: V97A: BKO-4A8 point variant, VL SEQ ID NO: 96 (antibody, V domains shown)
VL: B2 VL with T23I, G43D, V45A, V49M, S54N, S96N, V101A
modifications: VH not cited; 4A8 VL V97A
For the molecule B6, the “Fold change in binding relative to BKO-4A8” value with Human CXCR2 was 1.7.

B7: 106c: VH SEQ ID NO: 166, VL SEQ ID NO: 110 (antibody, V domains shown)
VH: B2 VH with Y32S, A33T, M34Q, A40P, T52S, K74N, R99Q, L100E, S107I
VL: B2 VL with T23I, V45A, V49M
modifications: 4A8 VH Variant 106 M34Q_A40P_R53S_R55G_N56S_ R75K_M96E; 4A8 VL variant c D41G_N52S_N94S
For the molecule B7, the “CXCR2 binding activity versus parental BKO-4A8” value with Human CXCR2 (combinatorial variants with light chain c) was “reduced”.

(Values after patent publication US12018084B2, “Anti-CXCR2 antibodies and uses thereof” (Cephalon LLC, priority 2018, dated 2024).)
